US20030158387A1
Like-named read-outs stand apart in the source and are kept apart here. Values belong to the binder of their own block, whether it stands above or below them. *: point of attachment. Nonanoyl = CCCCCCCCC(=O)*

Columns and labels:
[1] = biological target: chemokine receptor 1 (CCR1) (UniProt P56482)
[2] = biological target: chemokine receptor 1 (CCR1) (UniProt P56482); remark: listed apart in the source
[3] = biological target: chemokine receptor 1 (CCR1) (UniProt P56482); assay: competition radioligand binding, membranes of CHO-K1 cells expressing CCR1, tracer [125I]-MIP-1 alpha
[4] = biological target: chemokine receptor 1 (CCR1) (UniProt P56482); assay: competition radioligand binding on CCR1 (assay not given)
[5] = biological target: chemokine receptor 1 (CCR1) (UniProt P56482); assay: competition radioligand binding, membranes of CHO-K1 cells expressing CCR1, tracer [125I]-MIP-1 alpha; remark: listed apart in the source
[6] = biological target: chemokine receptor 5 (CCR5) (human), P51681; assay: competition radioligand binding, membranes of CHO-K1 cells expressing CCR5, tracer [125I]-MIP-1 beta; mean ± SEM; conditions: remark: other sources report otherwise
[7] = biological target: chemokine receptor 5 (CCR5) (human), P51681; assay: competition radioligand binding, membranes of CHO-K1 cells expressing CCR5, tracer [125I]-MIP-1 beta; conditions: remark: other sources report otherwise
[8] = biological target: chemokine receptor 1 (CCR1) (UniProt P56482); remark: listed apart in the source
[9] = biological target: chemokine receptor 1 (CCR1) (UniProt P56482); assay: competition with 125I-RANTES for binding to CCR1
[10] = biological target: chemokine receptor 1 (CCR1) (UniProt P56482); assay: competition with 125I-RANTES, membranes of CHO-K1 cells expressing CCR1, filtration, one site competition model; 125I-Rantes tracer, CCR1 membranes
[11] = biological target: chemokine receptor 1 (CCR1) (UniProt P56482); assay: cell-based or functional assay

Sequence of chemokine receptor 5 (CCR5) (human), P51681 (P51681 whole entry): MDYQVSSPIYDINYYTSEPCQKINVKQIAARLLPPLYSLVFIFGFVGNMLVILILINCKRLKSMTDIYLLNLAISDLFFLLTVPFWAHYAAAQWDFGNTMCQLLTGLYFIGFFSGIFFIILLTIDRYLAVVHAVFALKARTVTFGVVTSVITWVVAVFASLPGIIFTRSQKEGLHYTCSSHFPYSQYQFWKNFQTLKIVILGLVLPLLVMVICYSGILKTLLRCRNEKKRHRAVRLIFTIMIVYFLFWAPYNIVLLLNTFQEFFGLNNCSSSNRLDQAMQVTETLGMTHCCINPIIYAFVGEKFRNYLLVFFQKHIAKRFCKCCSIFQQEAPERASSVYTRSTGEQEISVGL

EC50 (aequorin luminescence, CHO-K1 cells expressing CCR1) [1]: 35.2 nM
B1: HCC-1[8-74] (ligand)
chain: RGPYHPSECCFTYTTYKIPRQRIMDYYETNSQCSKPGIVFITKRGHSVCTNPSDKWVQDYIKDMKEN

EC50 (read off the curve) [2]: 4 nM
IC50 (read off the curve) [3]: 0.1 nM
EC50 (aequorin luminescence, CHO-K1 cells expressing CCR1) [1]: 5.9 nM
B2: NNY-HCC-1[10-74] (nonanoyl-HCC-1[10-74]) (ligand)
chain: Nonanoyl-PYHPSECCFTYTTYKIPRQRIMDYYETNSQCSKPGIVFITKRGHSVCTNPSDKWVQDYIKDMKEN
modifications: ends and bridges not checked

Ki [4]: 100 nM
B3: full size human chemokine HCC-1 (residues 1-74) (ligand)
chain: TKTESSSRGPYHPSECCFTYTTYKIPRQRIMDYYETNSQCSKPGIVFITKRGHSVCTNPSDKWVQDYIKDMKEN

IC50 (read off the curve) [5]: 40 nM
B4: HCC-1[12-74] (ligand)
chemokine chain: HPSECCFTYTTYKIPRQRIMDYYETNSQCSKPGIVFITKRGHSVCTNPSDKWVQDYIKDMKEN

IC50 [6]: 0.116 nM
IC50 (read off the curve) [7]: 0.1 nM
B5: RANTES, P13501 24-91 (ligand, UniProt P13501 24-91, looked up)
chain: SPYSSDTTPCCFAYIARPLPRAHIKEYFYTSGKCSNPAVVFVTRKNRQVCANPEKKWVREYINSLEMS
modifications: ends and bridges not checked; also: 125I-labelled where used as tracer, unlabelled in functional assays

EC50 (read off the curve) [8]: 2 nM
Ki [9]: 0.023 nM
EC50 (aequorin luminescence, CHO-K1 cells expressing CCR1) [1]: 2.62 nM
IC50 [10]: 2.3 nM
EC50 of receptor activation (aequorin assay) [11]: 2.8 nM
IC50 (read off the curve) [5]: 0.2 nM
B6: processed human chemokine PHC-1 (HCC-1[9-74]) (ligand)
chain: GPYHPSECCFTYTTYKIPRQRIMDYYETNSQCSKPGIVFITKRGHSVCTNPSDKWVQDYIKDMKEN

EC50 (aequorin luminescence, CHO-K1 cells expressing CCR1) [1]: 262 nM
B7: HCC-1, residues 6-74 (ligand)
chain: SSRGPYHPSECCFTYTTYKIPRQRIMDYYETNSQCSKPGIVFITKRGHSVCTNPSDKWVQDYIKDMKEN

EC50 (read off the curve) [8]: 3 nM
IC50 (read off the curve) [3]: 0.1 nM
EC50 (aequorin luminescence, CHO-K1 cells expressing CCR1) [1]: 4.32 nM
IC50 (read off the curve) [5]: 0.2 nM
B8: HCC-1[10-74] (ligand)
chain: PYHPSECCFTYTTYKIPRQRIMDYYETNSQCSKPGIVFITKRGHSVCTNPSDKWVQDYIKDMKEN

EC50 (aequorin luminescence, CHO-K1 cells expressing CCR1) [1]: 218 nM
B9: HCC-1[7-74] (ligand)
chain: SRGPYHPSECCFTYTTYKIPRQRIMDYYETNSQCSKPGIVFITKRGHSVCTNPSDKWVQDYIKDMKEN

EC50 (aequorin luminescence, CHO-K1 cells expressing CCR1) [1]: 40.3 nM
B10: HCC-1[11-74] (ligand)
chain: YHPSECCFTYTTYKIPRQRIMDYYETNSQCSKPGIVFITKRGHSVCTNPSDKWVQDYIKDMKEN
